Source: patent US20220193191A1

Biological target: human interleukin-4 receptor alpha chain (IL-4Rα) (human) (UniProt P24394)
Experiment: cell-based or functional assay

B1: Reference IL-4Rα antibody (Dupilumab) (antibody, INN chains, looked up, V domains shown)
VH: EVQLVESGGGLEQPGGSLRLSCAGSGFTFRDYAMTWVRQAPGKGLEWVSSISGSGGNTYYADSVKGRFTISRDNSKNTLYLQMNSLRAEDTAVYYCAKDRLSITIRPRYYGLDVWGQGTTVTVSS
VL: DIVMTQSPLSLPVTPGEPASISCRSSQSLLYSIGYNYLDWYLQKSGQSPQLLIYLGSNRASGVPDRFSGSGSGTDFTLKISRVEAEDVGFYYCMQALQTPYTFGQGTKLEIKR
Eotaxin-3 IC50 (nM): inhibition of IL-4 induced eotaxin-3 release, human whole blood in vitro, 8 ng/mL IL-4 for 24 hours, ELISA: 1.5 nM
MDC IC50 (nM): inhibition of IL-4 induced MDC release, human whole blood in vitro, 8 ng/mL IL-4 for 24 hours, ELISA: 1.1 nM
TARC IC50 (nM): inhibition of IL-4 induced TARC release, human whole blood in vitro, 8 ng/mL IL-4 for 24 hours, ELISA: 0.8 nM
pSTAT IC50 (nM): inhibition of IL-4 stimulated STAT6 phosphorylation in CD3+ T cells, human whole blood in vitro, 8 ng/mL IL-4 for 15 minutes, FACS: 0.8 nM
